Source: article PMC7374715, “Conservation of Cdc14 phosphatase specificity in plant fungal pathogens: implications for antifungal development” (Scientific Reports, 2020)
Where two headings read alike, the source gives them in different places.

Legend:
[1] = substrate: O=[N+]([O-])c1ccc(OP(=O)(O)O)cc1; assay type: biochemical, Saccharomyces cerevisiae; settings: other: pNPP, 25 mM HEPES pH 7.5, 30 °C, mean of 3 ± SD
Experimental: (§1) Activities towards varying concentrations of para-nitrophenyl phosphate (pNPP) were measured in 100 µL assay buffer (25 mM HEPES pH 7.5, 2 mM TCEP, 1 mM EDTA, and 150 mM NaCl) at 30 °C. Enzyme concentrations were chosen to achieve absorbance values within the linear response range while satisfying the steady-state assumption where substrate consumption was < 1%. Reactions were initiated by enzyme addition and stopped with 1 N NaOH. Absorbance at 405 nm was measured on a Synergy H1 microplate reader (BioTek) and converted to product concentration using a para-nitrophenol standard curve. Initial rates were plotted as a function of substrate concentration and fit with the Michealis-Menten equation in GraphPad Prism (Version 8) to determine kcat and KM.

[2] = substrate: Cc1cc(=O)oc2c(F)c(OP(=O)(O)O)c(F)cc12; test: purified protein, by the assay type; settings: other: DiFMUP, 0.5 nM enzyme, pH 7.5, 30 °C, mean of 3 ± SD
Experimental: All enzyme concentrations were 0.5 nM, except for PsCdc14 and VHR, which were assayed at 2 and 5 nM, respectively. Fluorescence intensity was measured continuously on a Synergy H1 microplate reader (BioTek) with excitation and emission wavelengths set at 358 and 450 nm, respectively. Fluorescence intensity was converted to product concentration using a 6,8-difluoro-4-methylumbelliferone standard curve. Background fluorescence was subtracted from each reaction and initial rates were calculated from the slope of the linear portion of the product concentration versus time plots. kcat and KM were calculated as described above.

[3] = substrate: O=[N+]([O-])c1ccc(OP(=O)(O)O)cc1; assay type: biochemical, Botrytis cinerea; settings: other: pNPP, 25 mM HEPES pH 7.5, 30 °C, mean of 3 ± SD
Experimental: as §1

Protein | Km [1] | kcat [1] | kcat/Km [1] | Km [2] | kcat [2] | kcat/Km [2] | Km [3] | kcat [3] | kcat/Km [3]
ScCdc14 (Saccharomyces cerevisiae S288C) (protein, made in house; host or cells: E. coli BL21 AI) MRRSVYLDNTIEFLRGRVYLGAYDYTPEDTDELVFFTVEDAIFYNSFHLDFGPMNIGHLYRFAVIFHEILNDPENANKAVVFYSSASTRQRANAACMLCCYMILVQAWTPHQVLQPLAQVDPPFMPFRDAGYSNADFEITIQDVVYGVWRAKEKGLIDLHSFNLESYEKYEHVEFGDFNVLTPDFIAFASPQEDHPKGYLATKSSHLNQPFKSVLNFFANNNVQLVVRLNSHLYNKKHFEDIGIQHLDLIFEDGTCPDLSIVKNFVGAAETIIKRGGKIAVHCKAGLGRTGCLIGAHLIYTYGFTANECIGFLRFIRPGMVVGPQQHWLYLHQNDFREWKYTTRISLKPSEAIGGLYPLISLEEYRLQKKKLKDDKRVAQNNIEGELRDLTMTPPSNGHGALSARNSSQPSTANNGSNSFKSSAVPQTSPGQPRKGQNGSNTIEDIN | 23 ± 1 mM | 1.12 ± 0.08 s⁻¹ | 50 ± 4 M⁻¹ s⁻¹ | 11 ± 3 µM | 3 ± 0.4 s⁻¹ | 253000 ± 34000 M⁻¹ s⁻¹ | – | – | –
BcCdc14 (Botrytis cinerea B05.10) (protein) MHPMDYNSMLEWATLLPNDAHPGASAKKGPKDPREEDRPFHWLTYTDRLYLASYTTPPSPDTLFPYPEQQSSRRSPTKRSARAADGPSVVSDKREPPHYFSVDDTLLYNAFHHDFGPLHIGHLYRFAVQFHDILGAPENKNKPVVFWSKADARSRANAACLLATYMVLIQSWAPHLALAPIAQADPPLMPFRDAGYSQADYGITVQDVVYGVWRAKEQGFCALPQFDLEEYERYERVDQGDFNWLTPDFLAFASPQHHPVQPILPSSPLYASLPTTLEDVDTHPTLPTPFKNVLKHFTSRNIGLVVRLNSELYSPSFFTALGIEHLDMIFDDGTCPPLSVVRKFITLAHEMITVQKRGIAVHCKAGLGRTGCLIGAYLIYRYGFTANEIIAYMRFMRPGMVVGPQQHWLHLNQGTFREWWIEEQFEIRMKEKLANMAPVTPRKGHYTSKSQVVTPPNGNQRTPLGEVDNERSHSIGAQEDYLPAPTPGQPRK | – | – | – | 34 ± 7 µM | 1 ± 0.2 s⁻¹ | 43100 ± 11000 M⁻¹ s⁻¹ | 16 ± 2 mM | 0.38 ± 0.003 s⁻¹ | 24 ± 2 M⁻¹ s⁻¹
